Test results reported in US7732178B2, “Laccase enzymes and their uses” (AB Enzymes Oy, priority 2004, dated 2010).

What was measured:
[1] = Specific activity towards ABTS; format: biochemical; details: 25 mM succinate buffer pH 4.5, 25° C.
Method: The activity assay was carried out in accordance with the method developed by Niku-Paavola et al. (1988). The sample was diluted with 0.025 M succinate buffer, pH 4.5. […] The activity is expressed as nano katals.
(§1) Specific activities of the purified T. arenaria and C. thermophilum laccases were determined towards different laccase substrates.

[2] = Specific activity towards di-methoxy-phenol (DMP); format: biochemical; details: 25 mM MES buffer, pH 5.5
Method: as §1

[3] = Specific activity towards guaiacol; format: biochemical; details: 25 mM MES buffer, pH 5.5
Method: as §1

[4] = Isoelectric focusing (pI); format: physicochemical; details: pH range 3-9
Method: Molecular weight of the T. arenaria and C. thermophilum laccases were determined on SDS-PAGE according to Laemmli (1970) The gels used in the SDS-PAGE analysis were ready-made 12% Tris HCl gels (BioRad). Protein bands were visualized by staining with Coomassie Brilliant Blue (R 350; Pharmacia) and compared with molecular weight markers (Prestained Protein Marker Broad Range #7708S; New England BioLabs, Beverly, Mass.). The molecular weight of the both laccases was approximately 80 kDa. The isoelectric point of the laccases was determined with isoelectric focusing within the pH range of 3-9 (Pharmalyte IEF, Pharmacia) on a LKB 2117 Multiphor II Electrophoresis System (LKB Pharmacia, Bromma, Sweden) according to the manufacturer's instructions.
The purified recombinant Thielavia and Chaetomium laccases were characterized in terms of pH optimum, thermal stability, and pI as described in Example 2. The molecular weight was determined by MALDI-TOF mass spectrometry on a Ultraflex™ time-of-flight instrument (BrukerDaltonics, Germany) as previously described (Palonen et al., 2003). The redox-potentials of the T1 coppers of for CtLcc, and TaLcc2 laccases were determined by photometric copper titration in 0.1 M KH2PO4 (pH 6.0) as described by Xu et al. (1996) using the redox titrant couple K3Fe(CN)6/K4Fe(CN)6. The redox potential of TaLcc1 was determined with a combined Pt—AgCl/KCl microelectrode at pH 5.0 according to Sigoillot et al (2004). The characterization results are collected to Table 14.

[5] = Specific activity towards syringaldazine; format: biochemical; details: 25 mM MES buffer, pH 5.5
Method: as §1

| Molecule | Specific activity on ABTS [1] | Specific activity on DMP [2] | Specific activity on guaiacol [3] | pI [4] | Specific activity on syringaldazin [5] |
| --- | --- | --- | --- | --- | --- |
| TaLcc3: Thielavia arenaria ALKO 4197 laccase, SEQ ID NO: 43, produced in Trichoderma reesei (protein, Thielavia arenaria ALKO4197; (1)..(611) Deduced amino acid sequence of Thielavia arenaria LAKO4197 TaLcc3) MVCLQYQLTAACFAVLAVVTTPASCSPVQPSPVHDLLPRQTIIPGGKPCGQNNATNRGCWKNNWNITTDYEVDTPPAFNTRVYDLHITNVTNWLGPDGVRKPAMLINGSFPGPTISADWGDYIIVNVHNDMQDNGTSIHWHGIRQLGESNQDGANGVTECPIPPGSSKTYDFHVTQYGTSWYHSHYSNQYGNGVVGALIVRGPASANYDIDLGPYLISDYYYETADRLHLRAELVSNGPPPDSDNILFRGKNINPKRAGSGSYDRLVLTPGKKHLIRLINASVDNSFVISLVGHNFTVISTDMVPITPVVRSSLFMGVGQRYDVIVEANQPVGNYWLNATLEAQNNCGHSVNPFPAAIVQYEGASSTALPTNRGTPLTATCNGEKGFSPIVKRTVSSSLFQPSTLPVSLEFPTTDRGQVFEWRVKNTPISVEWEHPVLEYILQGNTSFPAKANLIEVPQANVWTFWVIQNGFGLPHPIHLHGHDFLVLGVGNGTFDAASMRGLLNFNNPVRRDVEQMPGNGWLVIAFKTDNPGCWLMHCHIGWHVAMGLGIQFLERRSDILALMKLDQMVPNCEAWRAYARTSPYLPKLDSGLKRGVEMREGMEPAVRRIG | 8.3 nkat/mg | 2.1 nkat/mg | 0 nkat/mg | 7.0-8.0 | 3.6 nkat/mg |
| MaL: well-known fungal laccase from Melanocarpus albomyces (protein, UniProt Q70KY3 51-609, looked up) Laccase-1: EPTCNTPSNRACWSDGFDINTDYEVSTPDTGVTQSYVFNLTEVDNWMGPDGVVKEKVMLINGNIMGPNIVANWGDTVEVTVINNLVTNGTSIHWHGIHQKDTNLHDGANGVTECPIPPKGGQRTYRWRARQYGTSWYHSHFSAQYGNGVVGTIQINGPASLPYDIDLGVFPITDYYYRAADDLVHFTQNNAPPFSDNVLINGTAVNPNTGEGQYANVTLTPGKRHRLRILNTSTENHFQVSLVNHTMTVIAADMVPVNAMTVDSLFLAVGQRYDVVIDASRAPDNYWFNVTFGGQAACGGSLNPHPAAIFHYAGAPGGLPTDEGTPPVDHQCLDTLDVRPVVPRSVPVNSFVKRPDNTLPVALDLTGTPLFVWKVNGSDINVDWGKPIIDYILTGNTSYPVSDNIVQVDAVDQWTYWLIENDPEGPFSLPHPMHLHGHDFLVLGRSPDVPAASQQRFVFDPAVDLARLNGDNPPRRDTTMLPAGGWLLLAFRTDNPGAWLFHCHIAWHVSGGLSVDFLERPADLRQRISQEDEDDFNRVCDEWRAYWPTNPYPKIDSGL | 840 nkat/mg | 290 nkat/mg | 90 nkat/mg |  | 380 nkat/mg |
